We go through seven molecules from publication PMC5025174 (PLoS ONE, 2016).

One assay deals with T1, human IGF1R ectodomain (Homo sapiens, UniProt P08069).
T1 construct: human IGF1R, ectodomain; source: bought: R&D Systems
The experiment in a line: SPR; SEC-purified VHH monomers, 0.1-10 nM, over human IGF1R ectodomain amine-coupled to a CM5 chip (476 RU); 25°C, HBS-EP pH 7.4; 1:1 binding model. The settings on record: both partners purified. On the technique in general: SPR reads the build-up and loss of mass on a sensor chip optically.

The target in a further assay is T2, human ICAM-1 ectodomain (Homo sapiens, UniProt P05362).
T2 construct: human ICAM-1, ectodomain; source: bought: R&D Systems
T2 sequence (P05362 28-480): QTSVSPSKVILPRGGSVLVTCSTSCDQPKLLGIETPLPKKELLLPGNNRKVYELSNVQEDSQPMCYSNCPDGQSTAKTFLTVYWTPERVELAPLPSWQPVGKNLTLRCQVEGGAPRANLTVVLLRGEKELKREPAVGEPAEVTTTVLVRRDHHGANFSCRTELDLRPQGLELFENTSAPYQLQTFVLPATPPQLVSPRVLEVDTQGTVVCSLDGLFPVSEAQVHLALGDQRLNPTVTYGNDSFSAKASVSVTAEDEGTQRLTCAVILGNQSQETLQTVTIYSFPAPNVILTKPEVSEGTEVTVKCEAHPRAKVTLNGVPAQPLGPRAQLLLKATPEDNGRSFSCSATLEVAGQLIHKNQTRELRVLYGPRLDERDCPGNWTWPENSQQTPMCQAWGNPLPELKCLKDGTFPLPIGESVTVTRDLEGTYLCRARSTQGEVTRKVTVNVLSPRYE
Kind of assay: SPR; SEC-purified VHH monomers, 0.5-200 nM, over human ICAM-1 ectodomain amine-coupled to a CM5 chip (1348 RU); 25°C, HBS-EP pH 7.4; 1:1 binding model. The settings on record: both partners purified.

T1 sequence (P08069 741-935): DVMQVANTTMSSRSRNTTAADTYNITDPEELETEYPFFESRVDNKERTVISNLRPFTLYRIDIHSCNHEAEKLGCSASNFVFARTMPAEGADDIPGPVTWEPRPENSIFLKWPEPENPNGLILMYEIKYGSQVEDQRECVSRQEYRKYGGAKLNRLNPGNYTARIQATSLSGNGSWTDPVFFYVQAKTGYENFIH

B1: IGF1R-4 VHH, wild-type (VHH)
VHH: QVKLEESGGGLVQAGGSLRLSCEVSGGTVSPTAMGWFRQAPGKEREFVGHITWSRGTTRVASSVKDRFTISRDSAKNTVYLQMNSLKSEDTAVYYCAASTFLRILPEESAYTYWGQGTQVTVSS
notes: anti-human IGF1R; bears Val59, Asp65 (Kabat); source: E. coli TG1, periplasm (osmotic shock), purified (IMAC)
Broadly, the Kd is the concentration at which binding is half-saturated. A high value points to weaker binding. B1 had a Kd with human IGF1R ectodomain of 0.3 nM.

B2: IGF1R-5 VHH, humanized (VHH)
VHH: QVQLVESGGGLVQPGGSLRLSCAASGRTIDNYAMAWSRQAPGKGLEFVATIDWGDGGTRYANSVKGRFTISRDNSKNTMYLQMNSLRAEDTAVYYCAMARQSRVNLDVARYDYWGQGTLVTVSS
notes: as the VHH of m23 with FRs reverted to human IGHV3 germline; also called humanized IGF1R-5; source: E. coli TG1, periplasm (osmotic shock), purified (IMAC); periplasmic extract for protein A chromatography
For the molecule B2, the Kd with human IGF1R ectodomain was 0.9 nM.

B3: IGF1R-5 VHH, wild-type (VHH)
VHH: QVKLEESGGGLVQAGGSLRLSCAASGRTIDNYAMAWSRQAPGKDREFVATIDWGDGGARYANSVKGRFTISRDNAKGTMYLQMNNLEPEDTAVYSCAMARQSRVNLDVARYDYWGQGTQVTVSS
notes: anti-human IGF1R; bears Ala57, Asn82b (Kabat); source: E. coli TG1, periplasm (osmotic shock), purified (IMAC)
In the assay with human IGF1R ectodomain, B3 had a Kd of 0.8 nM.

B4: IGF1R-4 VHH, humanized (VHH)
VHH: QVQLVESGGGLVQPGGSLRLSCAVSGGTVSPTAMGWFRQAPGKGLEFVGHITWSRGTTRYASSVKGRFTISRDNSKNTVYLQMNSLRAEDTAVYYCAASTFLRILPEESAYTYWGQGTLVTVSS
notes: as the VHH of m18 with FRs reverted to human IGHV3 germline; also called humanized IGF1R-4; source: E. coli TG1, periplasm (osmotic shock), purified (IMAC); periplasmic extract for protein A chromatography
With B4, the Kd with human IGF1R ectodomain came out at 0.4 nM.

B5: ICAM34-1 VHH, wild-type (VHH)
VHH: QVKLEESGGGLVQPGGSLRLSCAASGSIFSINDMGWYRQAPGKQRELVARITRDGSAAYEDSVKGRFTISRDNAPNTVFLQMNGLKPEDTAVYYCNAEIITTQTLGRMLGEYWGQGTQVTVSS
notes: anti-human ICAM-1; bears Ala57, Pro75, Gly82b (Kabat); source: E. coli TG1, periplasm (osmotic shock), purified (IMAC)
B5 showed a Kd with human ICAM-1 ectodomain of 32 nM.

B6: ICAM11-4 VHH, wild-type (VHH)
VHH: QVQLVESGGGLVQPGGSLRLSCAASGSISSLYVMGWYRQAPGKQRELVADITSSGSIYYVDSLKGRFTISRDNARSTVYLQMNSLEPEDTAVYYCMAHVRQDSGSEYLTYWGQGTQVTVSS
notes: anti-human ICAM-1; bears Ile57 (Kabat); source: E. coli TG1, periplasm (osmotic shock), purified (IMAC)
B6 came in with a Kd in the assay with human ICAM-1 ectodomain of 0.9 nM.

B7: ICAM11-4 VHH I57T (SpA-engineered) (VHH)
VHH: QVQLVESGGGLVQPGGSLRLSCAASGSISSLYVMGWYRQAPGKQRELVADITSSGSTYYVDSLKGRFTISRDNARSTVYLQMNSLEPEDTAVYYCMAHVRQDSGSEYLTYWGQGTQVTVSS
notes: as the VHH of m6 with the stated change; numbers count on: Kabat numbering; also called ICAM11-4 I57T; SpA-engineered ICAM11-4; source: E. coli TG1, periplasm (osmotic shock), purified (IMAC); periplasmic extract for protein A chromatography
For the molecule B7, the affinity with human ICAM-1 ectodomain, expressed as Kd, was 1.3 nM.
